Substrate in the series: C[C@H](CCC(=O)NCCS(=O)(=O)O)[C@H]1CC[C@H]2[C@@H]3[C@H](O)C[C@@H]4C[C@H](O)CC[C@]4(C)[C@H]3C[C@H](O)[C@]12C
Description: cells, lysate or membranes named.

This passage reports Km results from patent US8129197B2, “Cholesterol loaded insect cell membranes as test proteins” (SOLVO Biotechnológial ZRT., priority 2006, dated 2012).

B1: humanBSEP (Homo sapiens) (protein)
chain: MSDSVILRSIKKFGEENDGFESDKSYNNDKKSRLQDEKKGDGVRVGFFQLFRFSSSTDIWLMFVGSLCAFLHGIAQPGVLLIFGTMTDVFIDYDVELQELQIPGKACVNNTIVWTNSSLNQNMTNGTRCGLLNIESEMIKFASYYAGIAVAVLITGYIQICFWVIAAARQIQKMRKFYFRRIMRMEIGWFDCNSVGELNTRFSDDINKINDAIADQMALFIQRMTSTICGFLLGFFRGWKLTLVIISVSPLIGIGAATIGLSVSKFTDYELKAYAKAGVVADEVISSMRTVAAFGGEKREVERYEKNLVFAQRWGIRKGIVMGFFTGFVWCLIFLCYALAFWYGSTLVLDEGEYTPGTLVQIFLSVIVGALNLGNASPCLEAFATGRAAATSIFETIDRKPIIDCMSEDGYKLDRIKGEIEFHNVTFHYPSRPEVKILNDLNMVIKPGEMTALVGPSGAGKSTALQLIQRFYDPCEGMVTVDGHDIRSLNIQWLRDQIGIVEQEPVLFSTTIAENIRYGREDATMEDIVQAAKEANAYNFIMDLPQQFDTLVGEGGGQMSGGQKQRVAIARALIRNPKILLLDMATSALDNESEAMVQEVLSKIQHGHTIISVAHRLSTVRAADTIIGFEHGTAVERGTHEELLERKGVYFTLVTLQSQGNQALNEEDIKDATEDDMLARTFSRGSYQDSLRASIRQRSKSQLSYLVHEPPLAVVDHKSTYEEDRKDKDIPVQEEVEPAPVRRILKFSAPEWPYMLVGSVGAAVNGTVTPLYAFLFSQILGTFSIPDKEEQRSQINGVCLLFVAMGCVSLFTQFLQGYAFAKSGELLTKRLRKFGFRAMLGQDIAWFDDLRNSPGALTTRLATDASQVQGAAGSQIGMIVNSFTNVTVAMIIAFSFSWKLSLVILCFFPFLALSGATQTRMLTGFASRDKQALEMVGQITNEALSNIRTVAGIGKERRFIEALETELEKPFKTAIQKANIYGFCFAFAQCIMFIANSASYRYGGYLISNEGLHFSYVFRVISAVVLSATALGRAFSYTPSYAKAKISAARFFQLLDRQPPISVYNTAGEKWDNFQGKIDFVDCKFTYPSRPDSQVLNGLSVSISPGQTLAFVGSSGCGKSTSIQLLERFYDPDQGKVMIDGHDSKKVNVQFLRSNIGIVSQEPVLFACSIMDNIKYGDNTKEIPMERVIAAAKQAQLHDFVMSLPEKYETNVGSQGSQLSRGEKQRIAIARAIVRDPKILLLDEATSALDTESEKTVQVALDKAREGRTCIVIAHRLSTIQNADIIAVMAQGVVIEKGTHEELMAQKGAYYKLVTTGSPIS
As usually defined, the Km is the substrate concentration at which the rate is half of its maximum. For B1, the Michaelis-Menten constant (Km) (other: humanBSEP-Sf9 CTRL) is 15.03 µM.

B2: ratBsep (Rattus norvegicus) (protein)
chain: MSDSVILRSVKKFGEENHAFESDGSHNNDKKSRLQDKMKEGDIRVGFFELFRFSSSKDIWLMLMGGVCALLHGMAQPGILIIFGIMTDIFIKYDIERQELEIPGKACVNNTIVWINSSFHQNMTNGTVCGLVDIESEMIKFSGIYAGVGMTVLILGYFQIRLWVITGARQIRRMRKIYFRRIMRMEIGWFDCTSVGELNSRFADDIEKINDAIADQLAHFLQRMSTAMCGLLLGFYRGWKLTLVILAVSPLIGIGAAVIGLSIAKFTELELKAYAKAGSIADEVLSSIRTVAAFGGENKEVERYEKNLVFAQRWGIWKGMVMGFFTGYMWCLIFFCYALAFWYGSTLVLDEEEYTPGTLVQIFLCVILAAMNIGHASSCLEIFSTGCSAATNIFQTIDRQPVIDCMSGDGYKLDRIKGEIEFHNVTFHYPSRPDVKILDNLSMVIKPGETTALVGSSGAGKSTALQLIQRFYDPCEGMVTLDGHDIRSLNIRWLRDQIGIVEQEPVLFSTTIAENIRFGREDATMEDIVQAAKDANAYNFIMALPQQFDTLVGEGGGQMSGGQKQRVAIARALIRNPKILLLDMATSALDNESEARVQEALNKIQHGHTIISVAHRLSTVRAADVIIGFEHGVAVERGTHEELLERKGVYFMLVTLQSQGDNAHKETSIMGKDATEGGTLERTFSRGSYRDSLRASIRQRSKSQLSLLTHDPPLAVADHKSSYKDSKDNDVLVEEVEPAPVRRILKYNIPEWHYILVGSLSAAINGAVTPIYSLLFSQLLGTFSLLDKEQQRSEIHSMCLFFVILGCVSIFTQFLQGYTFAKSGELLTKRLRKFGFKAMLGQDIGWFDDLRNNPGVLTTRLATDASQVQGATGSQVGMMVNSFTNIIAALLIAFFFSWKLSLIITIFFPFLALSGAVQTKMLTGFASQDKQALEKAGQITSEALSNIRTVAGIGVEGRFIKAFEVELQTSYKTAVRKANIYGLCFAFSQGIAFLANSAAYRYGGYLIAYEGLGFSHVFRVVSSVALSATAVGRTFSYTPSYAKAKISAARFFQLLDRKPPINVYSEAGEKWDNFQGKIDFIDCKFTYPSRPDIQVLNGLSVSVNPGQTLAFVGSSGCGKSTSIQLLERFYDPDQGTVMIDGHDSKKVNIQFLRSNIGIVSQEPVLFDCSIMDNIKYGDNTKEISVERAIAAAKQAQLHDFVMSLPEKYETNVGIQGSQLSRGEKQRIAIARAIVRDPKILLLDEATSALDTESEKTVQTALDKAREGRTCIVIAHRLSTIQNSDIIAVVSQGVVIEKGTHEKLMAQKGAYYKLVITGAPIS
On to B2, for which the Michaelis-Menten constant (Km) (other: ratBsep-Sf9 CTRL) was 2.203 µM.

B3: mouseBsep (Mus musculus) (protein)
chain: MSDSVILRSVKKFGEENHAFESDGFHNNDKKSRLQDKKKGEGARVGFFELFRFSSSKDNWLMFMGSVCALLHGMAQPGMIIVFGILTDIFVEYDIERQELSIPEKVCMNNTIVWINSSFNQNMTNGTSCGLVDINSEVIKFSGIYAGVGVAVLILGYFQIRLWVITGARQIRKMRKFYFRRIMRMEIGWFDCTSVGELNSRFSDDINKIDEAIADQMALFLQRLSTALSGLLLGFYRGWKLTLVILAVSPLIGIGAAVIGLSVAKFTELELKAYAKAGSIADEVLSSIRTVAAFGGENKEVERYEKNLMFAQRWGIWKGMVMGFFTGYMWCLIFFCYALAFWYGSRLVLDEGEYTPGTLIQIFLCVIIAAMNIGNASSCLEIFSTGCSAASSIFQTIDRQPVMDCMSGDGYKLDRIKGEIEFHNVTFHYPSRPEVKILNNLSMVIKPGETTAFVGSSGAGKSTALQLIQRFYDPCEGMVTLDGHDIRSLNIRWLRDQIGIVEQEPVLFSTTIAENIRLGREEATMEDIVQAAKDANAYNFIMALPQQFDTLVGEGGGQMSGGQKQRVAIARALIRKPKILLLDMATSALDNESEAKVQGALNKIQHGHTIISVAHRLSTVRSADVIIGFEHGTAVERGTHEELLERKGVYFMLVTLQSQEDNTHKETGIKGKDTTEGDTPERTFSRGSYQDSLRASIRQRSKSQLSHLSHEPPLAIGDHKSSYEDRKDNDVLVEEVEPAPVRRILKYNISEWPYILVGALCAAINGAVTPIYSLLFSQILKTFSLVDKEQQRSEIYSMCLFFVILGCVSLFTQFLQGYNFAKSGELLTKRLRKFGFKAMLRQDIGWFDDLKNNPGVLTTRLATDASQVQGATGSQVGMMVNSFTNIFVAVLIAFLFNWKLSLVISVFFPFLALSGAVQTKMLTGFASQDKEILEKAGQITNEALSNIRTVAGIGVEGRFIKAFEVELEKSYKTAIRKANVYGLCYAFSQGISFLANSAAYRYGGYLIVYEDLNFSYVFRVVSSIAMSATAVGRTFSYTPSYAKAKISAARFFQLLDRKPPIDVYSGAGEKWDNFQGKIDFIDCKFTYPSRPDIQVLNGLSVSVDPGQTLAFVGSSGCGKSTSIQLLERFYDPDQGTVMIDGHDSKKVNVQFLRSNIGIVSQEPVLFDCSIMDNIKYGDNTKEISVERAIAAAKQAQLHDFVMSLPEKYETNVGIQGSQLSRGEKQRIAIARAIVRDPKILLLDEATSALDTESEKTVQLALDKAREGRTCIVIAHRLSTIQNSDIIAVMSQGVVIEKGTHKKLMDQKGAYYKLVITGAPIS
For B3, the Km (other: mouseBsep-Sf9 CTRL) was determined as 6.798 µM.
